Measurements: PMC4511006 (2015)
Ends that are not written are not given here.

Target: C1q CLR (collagen-like region) (UniProt P02745 31-109; P02747 31-112)
Assay: SPR

Binder: IALILEPICCQERAA (cysteine pairing not given here; also: acetylated, position not given here) [Acetylated PA (AcPA)]
- koff: 0.000219 s⁻¹
